Data published in paper PMC10165364, “Pathological variants in TOP3A cause distinct disorders of mitochondrial and nuclear genome stability”.
Numbering of substitutions follows the chain as printed.

Tests used:
Conditions in all cases: protein: recombinant; tags: N-terminal TEV-cleavable 6xHis, cleaved; label: 5' 32P; single strand
[1] = target: T1, TOP3A Ser810* (Homo sapiens, UniProt Q13472 16-809); assay: EMSA; comparable to WT; 25 mM HEPES pH 7.5, 70 mM NaCl, 100 ug/ml BSA, 1 mM DTT, 10% glycerol; 10 fmol oligo, 0-250 fmol TOP3A in 20 ul; 37 C 15 min, then ice; 8% native PAGE in 0.5x TBE at 4 C
T1 sequence: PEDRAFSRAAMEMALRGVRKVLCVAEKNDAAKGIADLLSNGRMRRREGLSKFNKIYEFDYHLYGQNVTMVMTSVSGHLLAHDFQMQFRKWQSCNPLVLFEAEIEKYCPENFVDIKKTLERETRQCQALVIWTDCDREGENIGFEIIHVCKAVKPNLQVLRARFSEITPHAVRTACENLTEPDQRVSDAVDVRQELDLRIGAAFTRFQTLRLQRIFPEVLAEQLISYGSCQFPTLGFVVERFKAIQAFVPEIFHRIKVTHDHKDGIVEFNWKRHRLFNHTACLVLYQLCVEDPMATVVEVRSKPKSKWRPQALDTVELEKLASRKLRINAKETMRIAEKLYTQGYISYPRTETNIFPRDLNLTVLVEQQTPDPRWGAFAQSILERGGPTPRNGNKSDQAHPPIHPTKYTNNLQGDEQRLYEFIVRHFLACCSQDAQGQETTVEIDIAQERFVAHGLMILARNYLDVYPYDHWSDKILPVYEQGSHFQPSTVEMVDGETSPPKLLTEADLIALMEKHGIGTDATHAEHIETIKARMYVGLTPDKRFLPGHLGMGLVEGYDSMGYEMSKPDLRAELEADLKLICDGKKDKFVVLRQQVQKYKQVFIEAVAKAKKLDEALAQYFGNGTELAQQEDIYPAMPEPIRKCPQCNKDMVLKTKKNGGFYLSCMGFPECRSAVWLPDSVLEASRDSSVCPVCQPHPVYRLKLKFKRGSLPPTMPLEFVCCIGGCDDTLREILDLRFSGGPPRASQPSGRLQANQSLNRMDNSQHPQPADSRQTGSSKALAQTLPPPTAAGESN

[2] = target: T2, TOP3A Leu37Val (Homo sapiens, UniProt Q13472 16-934, L37V); assay: EMSA; up to 250 fmol protein; 25 mM HEPES pH 7.5, 70 mM NaCl, 100 ug/ml BSA, 1 mM DTT, 10% glycerol; 10 fmol oligo, 0-250 fmol TOP3A in 20 ul; 37 C 15 min, then ice; 8% native PAGE in 0.5x TBE at 4 C
T2 sequence: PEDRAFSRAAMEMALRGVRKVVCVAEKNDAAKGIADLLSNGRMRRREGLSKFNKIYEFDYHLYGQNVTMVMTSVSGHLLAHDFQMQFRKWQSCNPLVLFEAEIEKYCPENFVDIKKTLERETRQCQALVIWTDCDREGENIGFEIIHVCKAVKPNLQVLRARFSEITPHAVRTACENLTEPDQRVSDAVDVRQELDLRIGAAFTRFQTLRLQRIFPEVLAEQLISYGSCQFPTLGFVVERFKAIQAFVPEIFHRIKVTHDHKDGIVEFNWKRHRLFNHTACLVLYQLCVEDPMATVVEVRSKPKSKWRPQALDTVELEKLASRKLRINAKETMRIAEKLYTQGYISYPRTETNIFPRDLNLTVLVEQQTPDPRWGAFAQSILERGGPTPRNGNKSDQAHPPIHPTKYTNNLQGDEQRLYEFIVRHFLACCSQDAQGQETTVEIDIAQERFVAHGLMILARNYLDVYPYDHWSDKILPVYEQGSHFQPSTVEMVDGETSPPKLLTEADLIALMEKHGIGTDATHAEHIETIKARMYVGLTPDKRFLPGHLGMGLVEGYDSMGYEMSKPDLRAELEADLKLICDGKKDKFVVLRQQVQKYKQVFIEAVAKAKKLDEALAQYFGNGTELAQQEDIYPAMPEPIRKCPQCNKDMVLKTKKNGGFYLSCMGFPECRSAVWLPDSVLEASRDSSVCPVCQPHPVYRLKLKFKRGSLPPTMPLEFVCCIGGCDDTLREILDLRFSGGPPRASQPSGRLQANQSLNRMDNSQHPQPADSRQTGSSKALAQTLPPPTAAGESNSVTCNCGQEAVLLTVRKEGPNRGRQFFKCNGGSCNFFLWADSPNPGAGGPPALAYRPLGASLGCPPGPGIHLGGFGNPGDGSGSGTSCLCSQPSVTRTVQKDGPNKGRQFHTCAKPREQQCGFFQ

[3] = target: T3, TOP3A Met575Val (Homo sapiens, UniProt Q13472 16-934, M575V); assay: as above
T3 sequence: T2 sequence with V22L, M560V

B1: EMSA substrate 80-mer (ssDNA)
DNA: ACCACATTAACAACATAAAACCCTCATTCACACGAGAAAACACCCTCATGTTCATACACCTATCCCCCATTCTCCTCCTA
[1]
  binding result: binds
[2]
  binding result: no binding
[3]
  binding result: no binding
